From patent publication US20090012275A1 (VIB VZW, published 2009)
Ends that are not written are not given here. * marks the point of attachment. Biotin = O=C1N[C@H]2[C@H](CS[C@H]2CCCCC(=O)*)N1

T1: glucose-6-phosphate dehydrogenase from Leuconostoc mesenteroides (Sigma) (Leuconostoc mesenteroides, UniProt P11411 2-486)
T1 construct: Bought protein spotted on nitrocellulose
T1 sequence: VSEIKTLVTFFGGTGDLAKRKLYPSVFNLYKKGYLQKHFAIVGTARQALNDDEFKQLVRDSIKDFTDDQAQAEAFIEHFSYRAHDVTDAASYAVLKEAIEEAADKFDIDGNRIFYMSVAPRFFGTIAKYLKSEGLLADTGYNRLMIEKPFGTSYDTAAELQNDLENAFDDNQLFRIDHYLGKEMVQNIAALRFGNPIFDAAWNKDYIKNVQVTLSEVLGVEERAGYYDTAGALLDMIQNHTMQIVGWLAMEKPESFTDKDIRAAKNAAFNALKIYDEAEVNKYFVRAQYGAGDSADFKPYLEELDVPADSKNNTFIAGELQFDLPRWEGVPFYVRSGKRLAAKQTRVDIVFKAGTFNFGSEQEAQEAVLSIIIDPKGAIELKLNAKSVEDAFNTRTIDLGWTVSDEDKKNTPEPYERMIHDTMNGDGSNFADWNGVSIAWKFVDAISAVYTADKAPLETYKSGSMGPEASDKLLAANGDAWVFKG

T2: citrate synthase from porcine heart (Roche) (porcine, UniProt P00889 28-464)
T2 construct: Bought protein spotted on nitrocellulose
T2 sequence (looked up): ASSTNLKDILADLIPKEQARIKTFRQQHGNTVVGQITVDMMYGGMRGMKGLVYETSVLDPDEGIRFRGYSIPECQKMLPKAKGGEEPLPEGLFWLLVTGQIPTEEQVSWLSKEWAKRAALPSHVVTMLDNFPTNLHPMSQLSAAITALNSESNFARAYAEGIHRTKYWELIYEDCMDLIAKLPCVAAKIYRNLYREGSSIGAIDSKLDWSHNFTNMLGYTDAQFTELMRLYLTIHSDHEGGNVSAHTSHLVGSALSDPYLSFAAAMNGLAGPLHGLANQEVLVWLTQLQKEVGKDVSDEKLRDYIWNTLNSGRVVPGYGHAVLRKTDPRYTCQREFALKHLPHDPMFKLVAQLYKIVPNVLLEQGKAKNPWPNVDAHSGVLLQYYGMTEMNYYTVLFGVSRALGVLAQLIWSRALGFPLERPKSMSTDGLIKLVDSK

B1: biotin-AFVDAISAVYTA (peptide)
peptide: Biotin-AFVDAISAVYTA
notes: Synthetic biotinylated peptide; also called interferor molecule with a specificity for glucose-6-phosphate dehydrogenase; biotinylated detection peptide
B2: biotin-ALFWLLVT (peptide)
peptide: Biotin-ALFWLLVT
notes: Synthetic biotinylated peptide (Jerine Peptide Technologies); biotin is part A, the peptide is part B; also called interferor molecule with a specificity for citrate synthase; biotinylated detection peptide

Columns and labels:
[1] = target: T1, glucose-6-phosphate dehydrogenase from …; experiment: dot blot: 0.3 mg target protein on nitrocellulose, 10 mM biotinylated peptide, streptavidin-HRP chemiluminescence
[2] = target: T2, citrate synthase from porcine heart …; experiment: as above

Binder | binding result [1] | binding result [2]
B1 | binds | 
B2 |  | binds
